Test results taken from patent US20210214461A1.
Positions count from the first letter of the chain named. One block for each binder: values may come before it.

Key:
[1] = target: pre-existing anti-scFv903 antibodies in human serum H69 (human); assay: competition ADA bridging ELISA
[2] = target: pre-existing anti-scFv903 antibodies in human serum H29 (human); assay: competition ADA bridging ELISA
[3] = target: pre-existing anti-scFv903 antibodies in human serum H15 (human); assay: competition ADA bridging ELISA
[4] = target: pre-existing anti-scFv903 antibodies in human serum H79 (human); assay: competition ADA bridging ELISA
[5] = target: pre-existing anti-scFv903 antibodies in human serum H64 (human); assay: competition ADA bridging ELISA
[6] = target: pre-existing anti-scFv903 antibodies in human serum H53 (human); assay: competition ADA bridging ELISA
[7] = target: pre-existing anti-scFv903 antibodies in human serum H76 (human); assay: competition ADA bridging ELISA
[8] = target: pre-existing anti-scFv903 antibodies in human serum H81 (human); assay: competition ADA bridging ELISA
[9] = target: pre-existing anti-scFv903 antibodies in human serum H63 (human); assay: competition ADA bridging ELISA
[10] = target: pre-existing anti-scFv903 antibodies in human serum H125 (human); assay: competition ADA bridging ELISA
[11] = target: pre-existing anti-scFv903 antibodies in human serum H116 (human); assay: competition ADA bridging ELISA
[12] = target: pre-existing anti-scFv903 antibodies in human serum H56 (human); assay: competition ADA bridging ELISA
[13] = target: pre-existing anti-scFv903 antibodies in human serum H40 (human); assay: competition ADA bridging ELISA
[14] = target: pre-existing anti-scFv903 antibodies in human serum H60 (human); assay: competition ADA bridging ELISA
[15] = target: pre-existing anti-scFv903 antibodies in human serum H105 (human); assay: competition ADA bridging ELISA
[16] = target: pre-existing anti-scFv903 antibodies in human serum H86 (human); assay: competition ADA bridging ELISA
[17] = target: pre-existing anti-scFv903 antibodies in human serum H20 (human); assay: competition ADA bridging ELISA
[18] = target: pre-existing anti-scFv903 antibodies in human serum H50 (human); assay: competition ADA bridging ELISA
[19] = target: pre-existing anti-scFv903 antibodies in human serum H14 (human); assay: competition ADA bridging ELISA
[20] = target: pre-existing anti-scFv903 antibodies in human serum H21 (human); assay: competition ADA bridging ELISA
[21] = target: pre-existing anti-scFv903 antibodies in human serum H3 (human); assay: competition ADA bridging ELISA
[22] = target: pre-existing anti-scFv903 antibodies in human serum H115 (human); assay: competition ADA bridging ELISA
[23] = target: pre-existing anti-scFv903 antibodies in human serum H19 (human); assay: competition ADA bridging ELISA
[24] = target: pre-existing anti-scFv903 antibodies in human serum H8 (human); assay: competition ADA bridging ELISA
[25] = target: pre-existing anti-scFv903 antibodies in human serum H26 (human); assay: competition ADA bridging ELISA
[26] = target: pre-existing anti-scFv903 antibodies in human serum H55 (human); assay: competition ADA bridging ELISA
[27] = target: rabbit polyclonal Anti-scFv 903 IgG termed AB903-3 (rabbit); assay: confirmatory ADA bridging ELISA, pre-incubation with 10, 100 or 1 mcg/ml scFv 903

B1: scFv 791 (scFv)
scFv: MEIVMTQSPSTLSASLGDRVIITCQSSQSVYGNIWMAWYQQKSGKAPKLLIYQASKLASGVPSRFSGSGSGAEFSLTISSLQPDDFATYYCQGNFNTGDRYAFGQGTKLTVLGGGGGSGGGGSGGGGSGGGGSEVQLVESGGGLVQPGGSLRLSCTASGFTISRSYWICWVRQAPGKGLEWVACIYGDNDITPLYANWAKGRFPVSTDTSKNTVYLQMNSLRAEDTAVYYCARLGYADYAYDLWGQGTLVTVSS
signal change in competition ELISA (% reduction in OD) [1]: -75% | signal change in competition ELISA (% reduction in OD) [2]: -79% | signal change in competition ELISA (% reduction in OD) [3]: -90% | signal change in competition ELISA (% reduction in OD) [4]: -97% | signal change in competition ELISA (% reduction in OD) [5]: -96% | signal change in competition ELISA (% reduction in OD) [6]: -35% | signal change in competition ELISA (% reduction in OD) [7]: -96% | signal change in competition ELISA (% reduction in OD) [8]: -94% | signal change in competition ELISA (% reduction in OD) [9]: -20% | signal change in competition ELISA (% reduction in OD) [10]: -97% | signal change in competition ELISA (% reduction in OD) [11]: -97% | signal change in competition ELISA (% reduction in OD) [12]: -15% | signal change in competition ELISA (% reduction in OD) [13]: -95% | signal change in competition ELISA (% reduction in OD) [14]: -95% | signal change in competition ELISA (% reduction in OD) [15]: -97% | signal change in competition ELISA (% reduction in OD) [16]: -87% | signal change in competition ELISA (% reduction in OD) [17]: -96% | signal change in competition ELISA (% reduction in OD) [18]: -89% | signal change in competition ELISA (% reduction in OD) [19]: -96% | signal change in competition ELISA (% reduction in OD) [20]: -85% | signal change in competition ELISA (% reduction in OD) [21]: -85% | signal change in competition ELISA (% reduction in OD) [22]: -95% | signal change in competition ELISA (% reduction in OD) [23]: -84% | signal change in competition ELISA (% reduction in OD) [24]: -91% | signal change in competition ELISA (% reduction in OD) [25]: -97% | signal change in competition ELISA (% reduction in OD) [26]: -96%

B4: scFv105 (scFv)
scFv: DIVMTQSPSSLSASVGDRVTLTCTASQSVSNDVVWYQQRPGKAPKLLIYSAFNRYTGVPSRFSGRGYGTDFTLTISSLQPEDVAVYYCQQDYNSPRTFGQGTKLEVKRGGGGSGGGGSGGGGSSGGGSQVQLVQSGAEVKKPGASVKVSCTASGYTFTHYGMNWVRQAPGKGLEWMGWINTYTGEPTYADKFKDRFTFSLETSASTVYMELTSLTSDDTAVYYCARERGDAMDYWGQGTLVTVSS
signal change in competition ELISA (% reduction in OD) [1]: -88% | signal change in competition ELISA (% reduction in OD) [2]: -51% | signal change in competition ELISA (% reduction in OD) [3]: -69% | signal change in competition ELISA (% reduction in OD) [4]: -41% | signal change in competition ELISA (% reduction in OD) [5]: -55% | signal change in competition ELISA (% reduction in OD) [6]: -18% | signal change in competition ELISA (% reduction in OD) [7]: -18% | signal change in competition ELISA (% reduction in OD) [8]: -18% | signal change in competition ELISA (% reduction in OD) [9]: -80% | signal change in competition ELISA (% reduction in OD) [10]: -55% | signal change in competition ELISA (% reduction in OD) [11]: -43% | signal change in competition ELISA (% reduction in OD) [12]: -5% | signal change in competition ELISA (% reduction in OD) [13]: 4% | signal change in competition ELISA (% reduction in OD) [14]: -11% | signal change in competition ELISA (% reduction in OD) [15]: 2% | signal change in competition ELISA (% reduction in OD) [17]: -19% | signal change in competition ELISA (% reduction in OD) [18]: -31% | signal change in competition ELISA (% reduction in OD) [19]: -4% | signal change in competition ELISA (% reduction in OD) [20]: -3% | signal change in competition ELISA (% reduction in OD) [21]: -59% | signal change in competition ELISA (% reduction in OD) [22]: -60% | signal change in competition ELISA (% reduction in OD) [23]: -73% | signal change in competition ELISA (% reduction in OD) [24]: -23% | signal change in competition ELISA (% reduction in OD) [25]: -80% | signal change in competition ELISA (% reduction in OD) [26]: -72%

Other lines, results leading:

signal change in competition ELISA (% reduction in OD) [1]: -92% | signal change in competition ELISA (% reduction in OD) [2]: -79% | signal change in competition ELISA (% reduction in OD) [3]: -91% | signal change in competition ELISA (% reduction in OD) [4]: -97% | signal change in competition ELISA (% reduction in OD) [5]: -97% | signal change in competition ELISA (% reduction in OD) [6]: -32% | signal change in competition ELISA (% reduction in OD) [7]: -97% | signal change in competition ELISA (% reduction in OD) [8]: -95% | signal change in competition ELISA (% reduction in OD) [9]: -97% | signal change in competition ELISA (% reduction in OD) [10]: -98% | signal change in competition ELISA (% reduction in OD) [11]: -98% | signal change in competition ELISA (% reduction in OD) [12]: -24% | signal change in competition ELISA (% reduction in OD) [13]: -95% | signal change in competition ELISA (% reduction in OD) [14]: -96% | signal change in competition ELISA (% reduction in OD) [15]: -97% | signal change in competition ELISA (% reduction in OD) [16]: -86% | signal change in competition ELISA (% reduction in OD) [17]: -92% | signal change in competition ELISA (% reduction in OD) [18]: -89% | signal change in competition ELISA (% reduction in OD) [19]: -97% | signal change in competition ELISA (% reduction in OD) [20]: -85% | signal change in competition ELISA (% reduction in OD) [21]: -80% | signal change in competition ELISA (% reduction in OD) [22]: -95% | signal change in competition ELISA (% reduction in OD) [23]: -90% | signal change in competition ELISA (% reduction in OD) [24]: -87% | signal change in competition ELISA (% reduction in OD) [25]: -92% | signal change in competition ELISA (% reduction in OD) [26]: -89% | OD change upon pre-incubation [27]: 60 to 95%
B2: scFv 903 (scFv)
scFv: EIVMTQSPSTLSASVGDRVIITCQASEIIHSWLAWYQQKPGKAPKLLIYLASTLASGVPSRFSGSGSGAEFTLTISSLQPDDFATYYCQNVYLASTNGANFGQGTKLTVLGGGGGSGGGGSGGGGSGGGGSEVQLVESGGGLVQPGGSLRLSCTASGFSLTDYYYMTWVRQAPGKGLEWVGFIDPDDDPYYATWAKGRFTISRDTSKNTVYLQMNSLRAEDTAVYYCAGGDHNSGWGLDIWGQGTLVTVSS

signal change in competition ELISA (% reduction in OD) [1]: -6% | signal change in competition ELISA (% reduction in OD) [2]: -22% | signal change in competition ELISA (% reduction in OD) [4]: -74% | signal change in competition ELISA (% reduction in OD) [5]: -14% | signal change in competition ELISA (% reduction in OD) [6]: -31% | signal change in competition ELISA (% reduction in OD) [7]: -36% | signal change in competition ELISA (% reduction in OD) [8]: -9% | signal change in competition ELISA (% reduction in OD) [9]: -36% | signal change in competition ELISA (% reduction in OD) [10]: 3% | signal change in competition ELISA (% reduction in OD) [11]: -33% | signal change in competition ELISA (% reduction in OD) [12]: -24% | signal change in competition ELISA (% reduction in OD) [13]: -2% | signal change in competition ELISA (% reduction in OD) [14]: -1% | signal change in competition ELISA (% reduction in OD) [15]: 7% | signal change in competition ELISA (% reduction in OD) [16]: -68% | signal change in competition ELISA (% reduction in OD) [17]: -23% | signal change in competition ELISA (% reduction in OD) [18]: -73% | signal change in competition ELISA (% reduction in OD) [20]: -81% | signal change in competition ELISA (% reduction in OD) [21]: -2% | signal change in competition ELISA (% reduction in OD) [22]: -31% | signal change in competition ELISA (% reduction in OD) [23]: -64% | signal change in competition ELISA (% reduction in OD) [24]: -89% | signal change in competition ELISA (% reduction in OD) [25]: 0% | signal change in competition ELISA (% reduction in OD) [26]: -15%
B3: scFv 961 (scFv)
scFv: B2 scFv with L142S, V224T, L246T
